Experimental findings from patent US20160009799A1 (ORDER MADE MEDICAL RESEARCH, published 2016) are described below.

The target of test [1] is T1, SLC6A6 (solute carrier family 6 (neurotransmitter transporter, taurine), member 6) on human colorectal cancer … (human, UniProt P31641 1-620).
T1 construct: Endogenous protein on ten colorectal cancer cell lines (Caco-2, COLO201, DLD-1, HCT15, HCT116, HT-29, LoVo, SW480, SW620, WiDr); also called native SLC6A6
T1 sequence: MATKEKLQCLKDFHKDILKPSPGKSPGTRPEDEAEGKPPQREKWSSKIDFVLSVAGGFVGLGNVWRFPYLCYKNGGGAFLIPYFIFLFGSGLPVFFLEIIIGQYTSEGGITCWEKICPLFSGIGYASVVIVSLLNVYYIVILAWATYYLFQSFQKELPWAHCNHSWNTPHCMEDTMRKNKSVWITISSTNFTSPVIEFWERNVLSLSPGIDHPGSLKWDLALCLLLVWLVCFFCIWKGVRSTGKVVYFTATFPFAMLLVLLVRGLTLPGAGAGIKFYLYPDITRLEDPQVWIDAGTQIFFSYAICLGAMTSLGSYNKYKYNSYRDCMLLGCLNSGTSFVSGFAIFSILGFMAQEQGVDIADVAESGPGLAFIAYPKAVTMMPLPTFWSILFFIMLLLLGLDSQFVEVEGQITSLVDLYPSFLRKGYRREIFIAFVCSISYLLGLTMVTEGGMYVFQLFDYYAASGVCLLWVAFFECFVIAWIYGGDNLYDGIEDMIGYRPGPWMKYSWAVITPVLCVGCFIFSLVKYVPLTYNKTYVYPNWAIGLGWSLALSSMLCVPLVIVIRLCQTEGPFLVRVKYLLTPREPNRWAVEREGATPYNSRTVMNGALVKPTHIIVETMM
As to the kind of experiment: flow cytometry on 10 colorectal cancer cell lines, antibody at 1 ug/mL. How it is done:
Ten lines of colorectal cancer cells were each cultured to reach 90% confluency. The cells of each line were washed twice with PBS, detached with a scraper and collected into a 1.5 mL tube. 4B9b and 5H12d antibodies were each added to give a final concentration of 1 μg/mL, followed by reaction for 60 minutes. After washing twice with PBS+2% FBS, AlexaFluor 488-labeled goat anti-mouse IgG (Invitrogen) was added as a 1/1000 dilution in PBS+2% FBS, followed by reaction for 30 minutes. After washing twice with PBS+2% PBS(FBS?), the cells were analyzed by Guava Flow Cytometry (Millipore).

The target of test [2] is T2, partial protein of the extracellular region of SLC6A6 (amino acid residues 143 to 216), His tag at the … (human, UniProt P31641 143-216).
T2 construct: also called SLC6A6 partial protein for screening; recombinant protein obtained in (6); not shown: His tag added to the C-terminal end (pET32 vector)
T2 sequence: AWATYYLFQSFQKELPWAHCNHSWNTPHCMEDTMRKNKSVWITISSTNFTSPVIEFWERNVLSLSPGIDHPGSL
Nature of the test: ELISA on plate-bound recombinant SLC6A6 partial protein, antibody 0 to 40 ug/mL. How it is done:
The recombinant protein obtained in (6) above (10 μg/ml) was dispensed in 100 μL volumes into MaxiSorp 96-well plates (Nunc) and adsorbed onto the plates at room temperature for 1 hour. After adsorption, each well was washed with TBS-T (25 mM Tris, 150 mM NaCl, 0.05% (v/v) Tween 20, pH 7.4) and charged with skimmed milk (GIBCO), which had been diluted at a concentration of 5% with TBS-T, to conduct blocking for 30 minutes at room temperature. After each well was washed three times with 200 μL TBS-T, […] ELISA plates in a volume of 100 μL per well, followed by reaction at room temperature for 1 hour. Each well was washed three times with […] TBS-T.
For use as a secondary antibody, anti-mouse IgG polyclonal antibody-HRP label (BETHYL) was diluted 5,000-fold with TBS-T. The above antibody dilution was added in a volume of 100 μL per well and reacted at room temperature for 30 minutes. Each well was washed three times with 200 μL TBS-T. Orthophenylenediamine (Sigma) was diluted with 50 mM carbonate-citrate buffer (pH 5.0) to give a final concentration of 0.5 mg/mL and mixed with 1/10,000 volumes of 35% (w/w) aqueous hydrogen peroxide (WAKO). […] The absorbance at 492 nm was measured with a plate reader (SpectraMax Plus 384, Molecular Devices) to analyze antibody titers, which were then used for selection of mice to be used for cell fusion. […]

B1: 4B9b antibody (produced by Mouse-Mouse hybridoma 4B9b, FERM BP-11413) (antibody, mouse IgM, V domains shown)
VH: QVKLQQSGAELMKPGASVKISCKATGYTFSRYWIEWVKQRPGHGLEWIGEILPGSGSTNYNEKFKGKATFTADTSSNTAYMQLSSLTSEDSAVYYCARGGFLGHYGFAYWGQGTLVTVSA
VL: DIQLTQSPTTMAASPGEKITITCSASSSISSNYLHWYQQKPGFSPKLLIYRTSNLASGVPARFSGSGSGTSYSLTIGTMEAEDVATYYCQQGSSIPYTFGGGTKLEIK
notes: also called anti-SLC6A6 antibody, 4B9b
Regarding B1, the binding result in test [1] was “binds”.

B2: mouse IgG1-converted anti-SLC6A6 antibody (4B9b) (antibody, V domains shown)
VH: B1 VH
VL: DIQLTQSPTTMAASPGEKITITCSASSSISSNYLHWYQQKPGFSPKLLIYRTSNLASGVPARFSGSGSGTSYSLTIGTMEAEDVATYYCQQGSSIPYTFGGGTKLEIKR
notes: Expressed in Cos7 cells and purified on Protein G; also called mouse IgG-converted antibody; mouse IgG-chimerized antibody
Turning to B2, the binding result in test [2] was “binds”.
